test: soluble on expression in E. coli; label from the status in PepcDB or PDB records

Sequence | soluble on expression in E. coli
MGSSHHHHHHMKKARMTVDKDYKIAEIDKRIYGSFVEHLGRAVYDGLYQPGNSKSDEDGFRKDVIELVKELNVPIIRYPGGNFVSNYFWEDGVGPVEDRPRRLDLAWKSIEPNQVGINEFAKWCKKVNAEIMMAVNLGTRGISDACNLLEYCNHPGGSKYSDMRIKHGVKEPHNIKVWCLGNAMDGPWQVGHKTMDEYGRIAEETARAMKMIDPSIELVACGSSSKDMPTFPQWEATVLDYAYDYVDYISLHQYYGNKENDTADFLAKSDDLDDFIRSVIATCDYIKAKKRSKKDIYLSFDEWNVWYHSNNEDANIMQNEPWRIAPPLLEDIYTFEDALLVGLMLITLMKHADRIKIACLAQLINVIAPIVTERNGGAAWRQTIFYPFMHASKYGRGIVLQPVINSPLHDTSKHEDVTDIESVAIYNEEKEEVTIFAVNRNIHEDIVLVSDVRGMKDYRLLEHIVLEHQDLKIRNSVNGEEVYPKNSDKSSFDDGILTSMLRRASWNVIRIGK | soluble
MGSDKIHHHHHHMNPNFTWDDLQFFLAVARTGQLSTAARRLRTSHATVSRRIDRLEFALKVKLFERNPRGYVLTTMGQRFVETAERMERETEQLQLDISDGMTAQRGVVRLSTLEGFGNFFLADRLGEFAERYPNISLELVAIQQIMSLSRKEADIAVALAAPKAGAYHAEVLTPYTLHVYGARSYLAGQPPIRTRSDLGSHRFVGYIDDMIFTPGLDYLGEIQPGLRAHFQSSSILTQLKAVRQGLGLCVLPHFMAKDEPNLEIVLPDEIELKRTYWLICHRDLIAIPRVRAVRDFLVDAAVENRGCFLRETPFALTGPRRVLERQ | not soluble
MEPKDTTTNDAFKGFTNTACPFLPCHKGVKREFNCLFCYCPLIAYECPGPYQVYTDKNGLTRKDCTNCTLPHDGYLASWNFIQKWLERPVIWSGAAQTTPPTRRPGRAPGDGDEELEHHHHHH | soluble
MGSDKIHHHHHHEETRTEVEKKNYMNNAEEAKDVLLGVYRTNTLDAMYGYYLSILFNLGTDISQVEGSGNENFRIIPTNSFPTTQSEVQQTWAALYTGIYRANDFLERISNKIGSYTTTDKKLATLYIAEARALRGMFYFELVRRFGNVVLMTSTQMSNQNPATYVQSAPEKVYEYIEDDLLYACDILPYATDDQYRESNDYRFSKGAALGLLTKVYATWAGYPVKDESKWEAAAKTARILVESGKHGLLKDYEQLWKNTCNGTWDPTESLIEISFYSPTVSGNSDPVGRIGKWNGVKTTAIAGVRGSCAANVKVVHTFVLDWREDVSDIRRDLSIANYQYTDTKKSLWVAGASDTDESAAEKDADPTKAQKNKQNYTPAKWDIQKYVTTNSFINNDKSNVNWYFLRYADVLLLYAEALNEWKHGPDAEAYNAINAVRRRGYGNPSNTSACDLPQGLDETSFREAVRKERSYELSFEGHRRQDLIRWGIYYKTVQATAKELGYWWEGTGSPNYSVATYTEEGKHELFPIPQRDMDLCIQFNQNPKW | not soluble
MGSDKIHHHHHHMEKGEPIVVVKEISKSYGKVEALKEVSFAVEQGEVFGLIGPDGAGKSTLFRILTTLLLADKGTATVNGLDVVTDYKQIRTKVGYMPGRFSLYQDLSVEENLEFFATVFHTLIQENYDLIKDIYQQIEPFKKRRAGALSGGMKQKLALSCSLIHKPDILFLDEPTTGVDPVSRKEFWQMLRNLRKQGITIIVSTPIMDEARQCDRIAFINHGQVHGIDTPERILQKFASILCPPPLEREEAQQMAAPVIEVEQLTKSFGHFTAVDHISFQVQRGEIFGFLGANGAGKTTAMRMLCGLSRPTSGVGKVAGYDIFREAEQVKRHIGYMSQKFSLYEDLKVWENIRLFAGIYGMKEMEIEEKTDELLERLGFADERDTLVKNLPLGWKQKLAFSVSIFHEPKIVFLDEPTGGVDPATRRQFWELIYQAADRGITVFVTTHYMDEAEYCNRISIMVDGQIKALDTPARLKEQFGVETMDDVFQQLARHAVRKAD | not soluble
MAVYLDFENHIKEIQNEIELALIRGDEDAKEILEKRLDKEVKSIYSNLTDFQKLQLARHPDRPYAMDYIDLILKDKYEVFGDRHYNDDKAIVCFVGKIDNVPVVVIGEEKGRGTKNKLLRNFGMPNPCGYRKALKMAKFAEKFNLPILMLVDTAGAYPGIGAEERGQSEAIAKNLQEFASLKVPTISVIIGEGGSGGALAIAVADKLAMMEYSIFSVISPEGCAAILWDDPSKTEVAIKAMKITPRDLKEAGLIDDIILEPSKGAHRDKFSAANTIKEYFLDALRTIQQDPHFLDNRYQKLMSLGSFVESMN | soluble
MQITEALISEPGEIRRFVQQAVDHWPNLLAFHFTLYSAEGIYGQQIQTFCSSFHRRVHERITEHNHTVSPSAPVVLRWLREQHEGAQIRCLLLLSQTSICHPRVGVMADEECAQLVDLLQQTWSVISAGGQCRVERCFRVARPGSSGQYVALKTAVQSFMSQVIATIIR | not soluble

Source: the DeepSol protein solubility set
